Measurements reported in patent publication US20240101686A1 (SIMCERE ZAIMING PHARMACEUTICAL, published 2024).
Read-outs that look alike come from different tables or passages of the source. Each block holds one binder with its values, some of them ahead of it.

Legend:
[1] = target: T1, human EGFR-His-tagged fusion protein (human, UniProt P00533 25-645)
T1 construct: extracellular domain; bought; also called human EGFR protein; human EGFR-His protein

[2] = target: T1, human EGFR-His-tagged fusion protein; remark: listed apart in the source
pepvIII polypeptide = target: T2, pepvIII polypeptide (human)
T2 construct: synthetic peptide (GL Biochem); also called Leu25-His37 polypeptide
T2 peptide: LEEKKGNYVVTDH

[3] = target: T1, human EGFR-His-tagged fusion protein; remark: listed apart in the source
[4] = target: T1, human EGFR-His-tagged fusion protein; remark: listed apart in the source
[5] = target: T1, human EGFR-His-tagged fusion protein; remark: listed apart in the source
[6] = target: T1, human EGFR-His-tagged fusion protein; remark: listed apart in the source
[7] = target: T1, human EGFR-His-tagged fusion protein; remark: listed apart in the source
[8] = target: T1, human EGFR-His-tagged fusion protein; remark: listed apart in the source
[9] = target: T3, human EGFRvIII-His tag protein (human, UniProt P00533 298-645)
T3 construct: Made in HEK293E, purified on nickel column; also called human EGFRvIII protein; not shown: His tag

monkey EGFR protein = target: T4, monkey EGFR protein (cynomolgus monkey, UniProt P55245 25-645 (rhesus entry))
T4 construct: Bought protein (SB 90285-C08H); also called cynomolgus monkey EGFR

human EGFR protein = target: T5, human EGFR protein (human, UniProt P00533 25-645)
T5 construct: also called human EGFR-His; human EGFR-ECD protein; not shown: His tag

murine EGFR protein [10] = target: T6, murine EGFR protein (murine, UniProt Q01279 25-647)
T6 construct: Bought protein

[11] = target: T7, monkey EGFR protein (commercial, SB, catalog number 90285-C08H) (monkey); assay: ELISA, coated monkey EGFR protein, antibody 0 nM (blank)
T7 construct: Bought protein used to coat ELISA plates

[12] = target: T7, monkey EGFR protein (commercial, SB, …); assay: ELISA, coated monkey EGFR protein, antibody 100 nM
[13] = target: T7, monkey EGFR protein (commercial, SB, …); assay: ELISA, coated monkey EGFR protein, antibody 0.0001 nM
[14] = target: T7, monkey EGFR protein (commercial, SB, …); assay: ELISA, coated monkey EGFR protein, antibody 1 nM
[15] = target: T7, monkey EGFR protein (commercial, SB, …); assay: ELISA, coated monkey EGFR protein, antibody 10 nM
[16] = target: T7, monkey EGFR protein (commercial, SB, …); assay: ELISA, coated monkey EGFR protein, antibody 0.01 nM
[17] = target: T7, monkey EGFR protein (commercial, SB, …); assay: ELISA, coated monkey EGFR protein, antibody 0.1 nM
[18] = target: T8, cynomolgus monkey EGFR on HEK293T-monkey EGFR cells (cynomolgus monkey, UniProt P55245 25-1210 (rhesus entry)); assay: FACS, HEK293T-monkey EGFR cells (specificity assay)
[19] = target: T8, cynomolgus monkey EGFR on …; assay: FACS, HEK293T-monkey EGFR cells
[20] = target: T7, monkey EGFR protein (commercial, SB, …); assay: ELISA, coated monkey EGFR protein, antibody 0.001 nM
[21] = target: T9, human EGFRvIII-His tag protein (extracellular domain Leu25-Ser378) (human, UniProt P00533 298-645)
T9 construct: Made in HEK293E cells, purified on nickel column; also called human EGFRvIII protein; EGFRvIII protein; not shown: His tag

murine EGFR protein [22] = target: T10, murine EGFR protein (murine, UniProt Q01279 25-647); remark: listed apart in the source
T10 construct: Bought protein

[23] = target: T9, human EGFRvIII-His tag protein …; remark: listed apart in the source
murine EGFR protein [24] = target: T10, murine EGFR protein; remark: listed apart in the source
[25] = target: T9, human EGFRvIII-His tag protein …; remark: listed apart in the source
[26] = target: T9, human EGFRvIII-His tag protein …; remark: listed apart in the source
murine EGFR protein [27] = target: T10, murine EGFR protein; remark: listed apart in the source
murine EGFR protein [28] = target: T10, murine EGFR protein; remark: listed apart in the source
[29] = target: T9, human EGFRvIII-His tag protein …; remark: listed apart in the source
murine EGFR protein [30] = target: T10, murine EGFR protein; remark: listed apart in the source
murine EGFR protein [31] = target: T10, murine EGFR protein; remark: listed apart in the source
murine EGFR protein [32] = target: T10, murine EGFR protein; remark: listed apart in the source
murine EGFR protein [33] = target: T10, murine EGFR protein; remark: listed apart in the source
[34] = target: T9, human EGFRvIII-His tag protein …; remark: listed apart in the source
[35] = target: T9, human EGFRvIII-His tag protein …; remark: listed apart in the source
[36] = target: T9, human EGFRvIII-His tag protein …; remark: listed apart in the source

OD450 [1]: 0.05 | OD450 [2]: 0.05 | binding result (pepvIII polypeptide): binds | OD450 [3]: 0.07 | OD450 [4]: 0.05 | OD450 [5]: 0.09 | OD450 [6]: 0.05 | OD450 [7]: 0.06 | OD450 [8]: 0.05
B1: 30D8-hIgG1 (antibody, V domains shown)
VH: EVQLVESGGGLVKPGGSLRLSCEASGFTFSDAWMSWVRQAPGKGLEWVGRIKSKTDGGTTDYVVPLNGRFIISRDDSRNTLYLQLNNLKTEDTAVYYCTTVPGSYGYWGQGTLVTVSS
VL: DIVMTQSPLSLPVTPGEPASISCRSSQSLLHNKRNNYLDWFLQKPGQSPQLLIYLASNRASGVPDRFSGGGSGTDFTLKISRVEAEDVGVYYCMQAQQTPITFGQGTRLEIK

Kd [9]: 11.7 nM | koff [9]: 0.00229 s⁻¹ | kon [9]: 197000 M⁻¹ s⁻¹
B2: 30D8-hIgG1 (antibody, V domains shown)
VH: B1 VH
VL: B1 VL
notes: anti-EGFRvIII control
binding result (monkey EGFR protein): no binding (tested: 200 nM (highest antigen concentration)) | binding result (human EGFR protein): no binding (tested: 30 µg/mL (highest EGFR concentration)) | binding result (murine EGFR protein [10]): no binding (tested: 200 nM (highest antigen concentration))

OD450 [11]: 0.06 | OD450 [12]: 0.19 | OD450 [13]: 0.05 | OD450 [14]: 0.06 | OD450 [15]: 0.08 | OD450 [16]: 0.06 | OD450 [17]: 0.06 | Max_MFI [18]: 314 | Max MFI [19]: 77 | binding result [19]: no binding | OD450 [20]: 0.06
B3: 30D8-hIgG1 (antibody, V domains shown)
VH: B1 VH
VL: B1 VL
notes: Anti-EGFRvIII control

OD450 [21]: 0.15 | OD450 (murine EGFR protein [22]): 0.06 | OD450 [23]: 0.07 | OD450 (murine EGFR protein [24]): 0.06 | OD450 [25]: 2.52 | OD450 [26]: 1.89 | OD450 (murine EGFR protein [27]): 0.06 | OD450 (murine EGFR protein [28]): 0.06 | OD450 [29]: 2.25 | OD450 (murine EGFR protein [30]): 0.06 | OD450 (murine EGFR protein [31]): 0.06 | OD450 (murine EGFR protein [32]): 0.1 | OD450 (murine EGFR protein [33]): 0.06 | OD450 [34]: 0.69 | OD450 [35]: 0.07 | OD450 [36]: 2.61
B4: 30D8-hIgG1 (antibody, V domains shown)
VH: B1 VH
VL: B1 VL
notes: Variable regions cloned with human IgG1 heavy chain constant region and human light chain constant region
